In patent publication US7217686B1, “DNA sequence encoding oncofetal ferritin protein” (Gardino Investment N.V., priority 1999, dated 2007):
Values joined by “and” are separate entries in the source; they are usually repeats but may differ in a detail not shown here. Equal values may be shown once.

What was measured:
[1] = test system: C57Bl Donor lymphocytes in transplanted Balb/c mice; test: Bone marrow transplantation C57Bl into Balb/c, flow cytometry for donor K^b positive cells; format: in vivo; conditions: Balb/c BMT treated with OFF1 (ex vivo 1 μg/ml, 10 μg i.p. for 14 days); 6 weeks post transplantation; results not shown
From the text: Animals: C57BL/6 (H2^b) and BALB/c (H2^d) mice were purchased from Harlane. Donors and recipients were 8–10 wk of age at the time of BMT. All mice were housed in a specific pathogen-free facility in microisolator cages.
Ex-vivo induction of anergy in mixed lymphocyte reaction (MLR): C57Bl donor bone marrow (responder) was harvested 2 days before transplantation. Balb/c recipient (stimulator) spleen cells were irradiated at a midplane dose of 3300 cGy. The cells were resuspended in RPMI-1640 medium with 5% mouse serum to 4×10^6/ml and incubated with 1 μg/ml of OFF1 for 30 min.
The erythrocyte depleted mononuclear cell fraction of the marrow was resuspended at a concentration of 4×10^6/ml in the above medium in a Donor:Recipient ratio of 1:1. The cells were cultured in tissue culture flasks for 36 hours at 37° C. in 5% CO2, washed and resuspended to 2×10^7 cells/1 ml in PBS containing OFF1 (1 μg/ml).
Bone marrow Transplantation (BMT): Balb/c recipients were sublethely irradiated by exposing mice to 5;5 GRAY total body irradiation from a ^137Cesium source at a dose rate of 85 cGY/min.
Day 2 MLR cultured cells (10^7/0.5 ml) were injected intravenously to BALB/c mice pretreated with OFF1 ((10 μg) injected i.p.) (BMT+OFF1). […]
All results were obtained using FACS (Beckton Dickenson). […] 10,000 cells were analyzed for each determination.

[2] = test system: human bone marrow progenitor CFU-GM; test: CFU-GM colony assay with normal human bone marrow mononuclear cells; format: cell-based; conditions: for number of CFU-GM colonies: scored after 14 days
Description: Bone marrow samples from 11 healthy volunteer donors were processed by density gradient separation using […] (Sigma diagnostics, St. Louis, Mo., USA) to obtain a purified population of mononuclear cells. Colony assays were performed in a plating medium containing final concentrations of 0.92% methyl cellulose (M-281 powder, 4,000 centipoise, Fisher Scientific Co., Fair Lawn, N.J., USA), rehydrated in Iscove's modified Dulbecco's medium containing 36 mM sodium bicarbonate (Gibco, Grand Island, N.Y., USA), 30% fetal bovine serum (FBS) (HyClone, Logan, Utah, USA) 0.292 mg/ml glutamine, 100 U/ml penicillin and 0.01 mg/ml streptomycin (Biological Industries, Beit Haemek, Israel). Growth factors used were […] GM-CSF Leucomax (Sandoz Pharma) and 5% vol/vol human phytohemagglutinin-M (Difco Laboratories, Detroit, Mich., USA)-induced conditioned medium (Cond. Med.) p43 (PLF) was added at concentration of 1 μg/mL and in neutralization experiments, p43 (PLF) was preincubated with 10× excess of CM-H-9 MoAb at 37° C. for 30 min and the complex added to the assay as above. The colony assay medium contained 10^5 mononuclear cells/ml and each 1 ml was plated into triplicate wells (333 μl/well) of a 24 well tissue culture plate (Greiner, Germany). Water was added to spaces between cells to maximize humidity during incubation of the cultures. The cultures were incubated at 37° C. in 5% CO2 and 55% relative humidity. Plates were scored after 14 days for colonies containing more than 50 cells.

[3] = test system: splenocytes from Balb/c mice transplanted with C57Bl bone marrow; test: In-vitro OFF1 treatment of splenocytes from transplanted Balb/c mice in MLR; format: cell-based
From the text: (§1) Immunologic assay: Splenocytes from bone marrow transplanted (BMT) Balb/c mice were reacted as above in MLR against the donor C57Bl splenocytes or against non-related splenocytes, to measure their immunoresponsiveness to the corresponding alloantigens.
In further experiments we tested the in-vitro effect of OFF1 treatment on responsiveness of splenocytes from control BMT+PBS against both donor C57Bl stimulators and against ICR stimulators.

[4] = test system: splenocytes from Balb/c mice transplanted with C57Bl bone marrow; test: MLR of splenocytes from bone marrow transplanted Balb/c mice against alloantigens; format: cell-based
From the text: as §1
Splenocytes obtained from Balb/c mice (K^b) treated with BMT+PBS (control) and with BMT+OFF1 were used as responder cells (R) and were reacted with C57Bl (K^b) splenocytes as stimulator cells (S) in MLR.

[5] = 11 donors, Cond. Med. 5% vol/vol, p43 (PLF) 1 μg/ml, GM-CSF 15 ng/ml

B1: OFF1: oncofetal ferritin 1 protein, purified from term placenta, termed also p43 (placental isoferritin, PLF) (protein)
chain: MTTASTSQVRQNYHQDSEAAINRQINLELYASYVYLSMSYYFDRDDVALKNFAKYFLHQSHEEREHAEKLMKLQNQRGGRIFLQDIKKPDCDDWESGLNAMECALHLEKNVNQSLLEFPSPISPSPSCWHHYTTNRPQPQHHLLRPRRRKRPHSIPTPILIFRSP
modifications: left off: a dimerising Fc or GST
- K^b positive donor cells in bone marrow and spleen [1]: development of hematopoietic chimerism
- MEDIAN number of CFU-GM colonies [2, 5]: 94
- RANGE of number of CFU-GM colonies [2, 5]: 0–748
- mean number of CFU-GM colonies (AVG.) [2, 5]: 169+/−216 and 169
- number of CFU-GM colonies ([2]; Bone Marrow No. 1, Cond. Med. 5% vol/vol, p43 (PLF) 1 μg/ml, GM-CSF 15 ng/ml): 280
- number of CFU-GM colonies ([2]; Bone Marrow No. 2, Cond. Med. 5% vol/vol, p43 (PLF) 1 μg/ml, GM-CSF 15 ng/ml): 748
- number of CFU-GM colonies ([2]; Bone Marrow No. 3, Cond. Med. 5% vol/vol, p43 (PLF) 1 μg/ml, GM-CSF 15 ng/ml): 152
- number of CFU-GM colonies ([2]; Bone Marrow No. 4, Cond. Med. 5% vol/vol, p43 (PLF) 1 μg/ml, GM-CSF 15 ng/ml): 28
- number of CFU-GM colonies ([2]; Bone Marrow No. 5, Cond. Med. 5% vol/vol, p43 (PLF) 1 μg/ml, GM-CSF 15 ng/ml): 94
- number of CFU-GM colonies ([2]; Bone Marrow No. 6, Cond. Med. 5% vol/vol, p43 (PLF) 1 μg/ml, GM-CSF 15 ng/ml): 6
- number of CFU-GM colonies ([2]; Bone Marrow No. 7, Cond. Med. 5% vol/vol, p43 (PLF) 1 μg/ml, GM-CSF 15 ng/ml): 0
- number of CFU-GM colonies ([2]; Bone Marrow No. 8, Cond. Med. 5% vol/vol, p43 (PLF) 1 μg/ml, GM-CSF 15 ng/ml): 242
- number of CFU-GM colonies ([2]; Bone Marrow No. 9, Cond. Med. 5% vol/vol, p43 (PLF) 1 μg/ml, GM-CSF 15 ng/ml): 8
- number of CFU-GM colonies ([2]; Bone Marrow No. 10, Cond. Med. 5% vol/vol, p43 (PLF) 1 μg/ml, GM-CSF 15 ng/ml): 210
- number of CFU-GM colonies ([2]; Bone Marrow No. 11, Cond. Med. 5% vol/vol, p43 (PLF) 1 μg/ml, GM-CSF 15 ng/ml): 94
- concentration giving the highest number of CFU-GM colonies ([2]; dose response, bone marrow progenitor cells from three donors (FIG. 10)): 1 μg/1 mL
- Mean CFU-GM following preincubation with MoAb CM-H9 ([2]; p43 (PLF) 1 μg/mL preincubated with 10× excess of CM-H-9 MoAb at 37° C. for 30 min): 7+/−10
- P.I. (Proliferation Index), BMT + OFF1, in-vitro treatment OFF1 ([3]; Stimulator C57Bl): 1.3
- P.I. (Proliferation Index), BMT + PBS, in-vitro treatment OFF1 ([3]; Stimulator C57Bl): 1
- P.I. (Proliferation Index), BMT + OFF1, in-vitro treatment OFF1 ([3]; Stimulator ICR): 4.7
- P.I. (Proliferation Index), BMT + PBS, in-vitro treatment OFF1 ([3]; Stimulator ICR): 3.5
- P.I. (Proliferation Index), BMT + OFF1, in-vitro treatment None ([4]; Stimulator C57Bl): 1.3
- P.I. (Proliferation Index), BMT + OFF1 ([4]; Stimulator C57Bl, S/R Ratio 0): 1
- P.I. (Proliferation Index), BMT + OFF1 ([4]; Stimulator C57Bl, S/R Ratio 0.2): 1.3
- P.I. (Proliferation Index), BMT + OFF1 ([4]; Stimulator C57Bl, S/R Ratio 1): 1
- P.I. (Proliferation Index), BMT + OFF1 ([4]; Stimulator C57Bl, S/R Ratio 4): 1.1
- P.I. (Proliferation Index), BMT + OFF1, in-vitro treatment None ([4]; Stimulator ICR): 9.6
- P.I. (Proliferation Index), BMT + OFF1 ([4]; Stimulator ICR, S/R Ratio 0): 1
- P.I. (Proliferation Index), BMT + OFF1 ([4]; Stimulator ICR, S/R Ratio 0.2): 1.8
- P.I. (Proliferation Index), BMT + OFF1 ([4]; Stimulator ICR, S/R Ratio 1): 2.6
- P.I. (Proliferation Index), BMT + OFF1 ([4]; Stimulator ICR, S/R Ratio 4): 9.6
- response of splenocytes of BMT+OFF1 chimeric mice to donor C57Bl stimulators in MLR ([4]; any S/R ratios): completely anergic
